Test results as given in US20140377289A1, “Metallodrugs Having Improved Pharmacological Properties, and Methods of Manufacture and Use Thereof” (MetalloPharm, LLC, priority 2011, published 2014).
Where no end group is shown, it is not given here.

Assays:
[1] = molecular target: HCV protease (hepatitis C virus (HCV)); assay: affinity of metallopeptide for HCV protease; method not described
[2] = molecular target: Recombinant human somatic ACE (sACE-1: Leu30-Leu1261, with C-terminal His tag) (human) (UniProt P12821); assay: cell-based or functional assay
[3] = molecular target: Recombinant human somatic ACE (sACE-1: Leu30-Leu1261, with C-terminal His tag) (human) (UniProt P12821); assay: affinity calculated from the IC50 of sACE-1 inhibition (fluorogenic substrate cleavage, 37 C, pH 7.4)

Recombinant human somatic ACE (sACE-1: Leu30-Leu1261, with C-terminal His tag) (human), sequence (P12821 30-1261 limits assumed): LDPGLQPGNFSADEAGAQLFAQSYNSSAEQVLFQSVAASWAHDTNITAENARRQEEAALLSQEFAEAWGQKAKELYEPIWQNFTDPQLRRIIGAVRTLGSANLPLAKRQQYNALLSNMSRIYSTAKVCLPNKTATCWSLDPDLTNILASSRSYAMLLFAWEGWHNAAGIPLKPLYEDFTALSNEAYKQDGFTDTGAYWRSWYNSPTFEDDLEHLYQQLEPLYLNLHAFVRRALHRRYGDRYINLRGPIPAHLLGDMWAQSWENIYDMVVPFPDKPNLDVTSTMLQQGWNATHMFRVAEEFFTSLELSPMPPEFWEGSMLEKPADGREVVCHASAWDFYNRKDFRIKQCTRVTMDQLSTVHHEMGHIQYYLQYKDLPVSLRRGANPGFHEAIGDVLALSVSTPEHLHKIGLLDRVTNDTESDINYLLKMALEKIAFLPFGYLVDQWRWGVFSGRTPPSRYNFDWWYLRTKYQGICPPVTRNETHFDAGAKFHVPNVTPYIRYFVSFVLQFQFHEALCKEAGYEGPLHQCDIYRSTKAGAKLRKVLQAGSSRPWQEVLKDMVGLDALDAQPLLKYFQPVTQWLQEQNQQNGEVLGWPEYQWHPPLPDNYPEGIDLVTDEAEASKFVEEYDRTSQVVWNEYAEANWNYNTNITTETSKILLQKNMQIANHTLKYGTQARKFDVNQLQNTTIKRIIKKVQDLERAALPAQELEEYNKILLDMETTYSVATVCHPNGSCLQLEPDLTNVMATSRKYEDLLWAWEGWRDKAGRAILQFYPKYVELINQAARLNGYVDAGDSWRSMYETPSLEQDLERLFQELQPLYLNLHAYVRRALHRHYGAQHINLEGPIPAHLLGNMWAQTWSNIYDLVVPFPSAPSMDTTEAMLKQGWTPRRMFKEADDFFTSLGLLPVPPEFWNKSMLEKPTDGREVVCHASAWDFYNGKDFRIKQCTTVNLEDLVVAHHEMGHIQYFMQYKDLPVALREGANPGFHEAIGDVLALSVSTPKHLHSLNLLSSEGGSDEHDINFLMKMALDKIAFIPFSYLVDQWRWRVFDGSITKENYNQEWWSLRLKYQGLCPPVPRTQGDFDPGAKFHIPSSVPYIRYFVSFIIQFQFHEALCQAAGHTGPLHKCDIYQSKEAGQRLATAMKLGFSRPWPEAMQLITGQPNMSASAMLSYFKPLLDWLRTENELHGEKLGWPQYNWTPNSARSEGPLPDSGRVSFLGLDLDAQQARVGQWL

Row | IC50's (nM) for sACE-1 inhibition (fluorogenic substrate cleavage) [2] | Ka [3] | Substance | affinity [1]
1 |  |  | GGHDEMEEC | 48 µM
2 | 17000 nM | 59000 M⁻¹ | [Cu-GGH]^1- (peptide) | 
